Assay [1] addresses T1, recombinant human midkine (huMK) (human, UniProt P21741 21-143).
T1 construct: also called human MK; Human MK
T1 sequence (looked up): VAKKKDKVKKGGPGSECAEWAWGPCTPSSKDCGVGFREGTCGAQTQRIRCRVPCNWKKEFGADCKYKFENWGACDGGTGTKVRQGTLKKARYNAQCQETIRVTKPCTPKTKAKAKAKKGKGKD
The experiment in a line: ELISA, plate coated with huMK. As to the method:
(§1) The binding specificity and affinity of the humanised anti-MK antibodies to recombinant human MK (huMK) and murine MK (muMK) was assessed by ELISA. ELISA plates (Nunc Immuno MaxiSorp 96 well flat-bottom were coated with 100 uL of 2 ug/mL of either huMK or muMK in 2% BSA/PBS (overnight at room temperature). After washing, blocking (1 h at 37° C.), and washing again, the humanised anti-MK and chimeric antibodies described in Example 1 were analysed for binding to huMK or muMK at concentrations ranging between 3 μg/ml and 0.00004 μg/ml in 2% BSA/PBS (1 h at 37° C.). After washing, the binding of antibody was detected with goat anti-mouse IgG (Fab specific)-HRP conjugate (Sigma, Cat. No. A9917) and SigmaFast OPD substrate (Sigma, Cat. No. P9187). The reaction was stopped with 3 M HCl, absorbance read at 490 nm on a Dynex Technologies MRX TC II plate reader and the binding curves plotted. Binding affinity data for the humanised anti-MK antibodies to huMK and muMK are presented in Table 6 and Table 7 respectively, and in FIG. 3.
(In general: In an ELISA, binding on a coated surface is turned into a signal by an enzyme label.)

The target in assay [2] is T2, recombinant murine midkine (muMK) (murine, UniProt P12025 23-140).
T2 construct: also called murine MK; Murine MK
T2 sequence (looked up): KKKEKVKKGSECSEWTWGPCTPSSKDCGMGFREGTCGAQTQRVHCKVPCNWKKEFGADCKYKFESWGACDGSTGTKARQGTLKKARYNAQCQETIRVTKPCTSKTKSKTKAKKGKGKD
Briefly: ELISA on plate-coated muMK, antibody titrated up to 3 µg/ml, Abs 450nm on the sheet's axis [continued), panel IP14 Hv3 Murine Midkine]. The protocol: as §1, with “The reaction was stopped with 3 M HCl, absorbance read at 490 nm on a Dynex Technologies MRX TC II plate reader and the binding curves plotted.” left out

The target in assay [3] is T1, recombinant human midkine (huMK). Briefly: cell-based or functional assay.
Assay [4] concerns the target T2, recombinant murine midkine (muMK). The experiment in a line: ELISA, plate coated with muMK. As to the method:
as §1

Assay [5] addresses T1, recombinant human midkine (huMK). Briefly: ELISA by the methods of Example 2 (printed as KD). As to the method: as §1
(§2) KD values for hIP14-H5L8, hIP14-H6L3 and hIP14-H6L8 was then compared with the KD values obtained for the corresponding murine IP14 precursor antibody and the chimeric antibody using the methods described in Example 2. As is apparent from Table 7, the humanised mIP14 antibodies designated hIP14-H5L8, hIP14-H6L3, and hIP14-H6L8 were each shown to have better binding affinity than the murine IP14 precursor antibody and the chimeric antibody for huMK and muMK. Based on this finding, these candidate antibodies were produced to 100 mg scale to enable further testing in functional assays to determine biological function.

Assay [6] addresses T2, recombinant murine midkine (muMK). Briefly: ELISA by the methods of Example 2 (printed as KD). The protocol:
as §1, §2

B1: IP14-H3L6 (antibody, V domains shown)
VH: QVQLVQSGAEVKKPGASVKVSCKASGQSFSSYWMNWVRQAPGQGLEWMGMIHPSDSETILNQKFKDKVTMTRDTSTSTVYMELSSLRSEDTAVYYCARWSAKRGDFWGQGTLVTVSS
VL: EIVLTQSPSTLSASVGDRVNITCRASESISNNLHWYQQKPHKAPKLLIYYASQSISGVPSRFSGSGSGTEFNLTISSVQPDDFATYYCQQSNSWPLTFGQGTKVEIKR
notes: also called Hv3 Lv6
As to B1, the concentration for a half-maximal effect (EC50) (as a rule, the concentration at which the effect is half-maximal) in assay [1] stood at 5.7 nM. In assay [2], the binding result was “binds”.

B2: IP14-H6L3 (antibody, V domains shown)
VH: QVQLVQSGGGLVKPGHSLRLSCAASGQSFSSYWMNWVRQAPGKGLEWIGMIHPSDSETILNQKFKDKATLSVDIAKNSAYLQMNSLRAEDTAVYYCSSWSAKRGDFWGQGTLVTVSS
VL: DIVLTQSPATLSLSPGERATLSCRASESISNNLHWYQQKPGQAPRLLIYYASQSISGIPARFSGSGPGTDFTLTISSLEPEDFAVYYCQQSNSWPLTFGGGTKLEIKR
notes: also called hIP14-H6L3; Hv6 Lv3
For the molecule B2, in assay [3], the “% Inhibition of UMR106 cell migration, Assay 4” value came to 48%; the “% Inhibition of UMR106 cell migration, Assay 5” value stood at 40%; the “% Inhibition of UMR106 cell migration, Assay 6” value amounted to 45%; the “Mean % Inhibition of UMR106 cell migration” value stood at 44.3%. For the same molecule, in assay [3], the “Mean Cells/Field, Assay 4 (UMR106 migration, antibody 100 ug/mL, MK-17 20 µg/mL)” value was determined as 25 cells/field; the “Mean Cells/Field, Assay 5 (UMR106 migration, antibody 100 ug/mL, MK-17 20 µg/mL)” value was 25 cells/field; the “Mean Cells/Field, Assay 6 (UMR106 migration, antibody 100 ug/mL, MK-17 20 µg/mL)” value stood at 23 cells/field. The concentration for a half-maximal effect (EC50) in assay [1] was found to be 0.07 nM. Further, the EC50 in assay [4] stood at 0.048 nM. For the same molecule, the dissociation constant Kd – broadly, the constant that tells how readily two partners part at equilibrium – in assay [5] was 0.07 nM. In addition, in assay [6], the Kd is 0.048 nM.

B3: IP14-H3L3 (antibody, V domains shown)
VH: QVQLVQSGAEVKKPGASVKVSCKASGQSFSSYWMNWVRQAPGQGLEWMGMIHPSDSETILNQKFKDKVTMTRDTSTSTVYMELSSLRSEDTAVYYCARWSAKRGDFWGQGTLVTVSS
VL: DIVLTQSPATLSLSPGERATLSCRASESISNNLHWYQQKPGQAPRLLIYYASQSISGIPARFSGSGPGTDFTLTISSLEPEDFAVYYCQQSNSWPLTFGGGTKLEIKR
notes: also called Hv3 Lv3
B3: the EC50 in assay [1] stood at 5.79 nM. The binding result in assay [2] is given as “binds”.

For the origin of these results see patent publication US20170240628A1 (CELLMID, published 2017).
